Data on eight molecules can be found in publication PMC11267003, “Interdomain communication in a homodimeric ABC transporter” (The Journal of Biological Chemistry, 2024).

Broadly, the IC50 is the midpoint of a concentration-inhibition curve. A high value points to lower potency.

Numbering of substitutions follows the chain as printed. Names may count otherwise. No end group written: not given here. *: point of attachment. Fluorescein(5-NHCOCH2) = O=C(C*)Nc1ccc2c(c1)C(=O)OC21c2ccc(O)cc2Oc2cc(O)ccc21

T1: human coreTAPL D292A, C-terminal mVenus-His10 fusion (human) (UniProt Q9NP78)
T1 sequence: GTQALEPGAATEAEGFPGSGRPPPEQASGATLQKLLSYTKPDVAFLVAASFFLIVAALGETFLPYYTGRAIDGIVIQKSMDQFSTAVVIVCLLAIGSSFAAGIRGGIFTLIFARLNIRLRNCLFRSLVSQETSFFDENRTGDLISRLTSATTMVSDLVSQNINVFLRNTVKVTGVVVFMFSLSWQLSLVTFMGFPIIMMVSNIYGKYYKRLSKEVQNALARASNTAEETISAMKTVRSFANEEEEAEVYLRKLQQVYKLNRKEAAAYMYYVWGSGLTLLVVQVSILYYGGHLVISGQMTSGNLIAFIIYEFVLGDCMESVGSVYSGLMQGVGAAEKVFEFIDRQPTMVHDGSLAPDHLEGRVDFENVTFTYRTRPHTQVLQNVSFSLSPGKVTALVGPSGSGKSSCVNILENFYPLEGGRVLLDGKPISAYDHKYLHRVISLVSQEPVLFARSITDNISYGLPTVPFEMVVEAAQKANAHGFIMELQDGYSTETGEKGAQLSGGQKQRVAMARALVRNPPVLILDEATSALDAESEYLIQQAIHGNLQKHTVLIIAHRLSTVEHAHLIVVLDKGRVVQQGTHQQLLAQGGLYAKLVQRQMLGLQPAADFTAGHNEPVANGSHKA

T2: human coreTAPL R288A, C-terminal mVenus-His10 fusion (human) (UniProt Q9NP78)
T2 sequence: T1 sequence with R146A, A150D

T3: human coreTAPL wildtype (transporter associated with antigen processing-like, ABCB9), C-terminal mVenus-His10 fusion (human) (UniProt Q9NP78)
T3 sequence: T1 sequence with A150D

B1: peptide C4^Atto-655 (RRYC^Atto-655KSTEL) (peptide)
peptide: RRYC(Atto‑655)KSTEL
notes: synthetic 9-mer peptide C4; source: synthetic peptide (Fmoc solid-phase synthesis), labelled, purified by reversed-phase HPLC
B2: human coreTAPL D278A, C-terminal mVenus-His10 fusion (complex, UniProt Q9NP78 143-766, looked up)
chain: T1 sequence with D136A, A150D
notes: human TAPL (ABCB9), coreTAPL, amino acids 143-766; Mutant of the mVenus fusion construct; TEV site between coreTAPL and mVenus; also called D278A^mV; source: Sf21 insect cells (baculovirus), purified by Ni-NTA after solubilisation in GDN or DDM; reconstituted into liposomes for transport and hydrolysis assays; not shown: mVenus, C-terminal, kept
B3: human coreTAPL D292A, C-terminal mVenus-His10 fusion (complex, UniProt Q9NP78 143-766, looked up)
chain: T1 sequence
notes: human TAPL (ABCB9), coreTAPL, amino acids 143-766; Mutant of the mVenus fusion construct; TEV site between coreTAPL and mVenus; also called D292A^mV; source: Sf21 insect cells (baculovirus), purified by Ni-NTA after solubilisation in GDN or DDM; reconstituted into liposomes for transport and hydrolysis assays; not shown: mVenus, C-terminal, kept
B4: human coreTAPL R288A, C-terminal mVenus-His10 fusion (complex, UniProt Q9NP78 143-766, looked up)
chain: T1 sequence with R146A, A150D
notes: human TAPL (ABCB9), coreTAPL, amino acids 143-766; Mutant of the mVenus fusion construct; TEV site between coreTAPL and mVenus; also called R288A^mV; source: Sf21 insect cells (baculovirus), purified by Ni-NTA after solubilisation in GDN or DDM; reconstituted into liposomes for transport and hydrolysis assays; not shown: mVenus, C-terminal, kept
B5: human coreTAPL wildtype (transporter associated with antigen processing-like, ABCB9), C-terminal mVenus-His10 fusion (complex, UniProt Q9NP78 143-766, looked up)
chain: T1 sequence with A150D
notes: human TAPL (ABCB9), coreTAPL without the N-terminal TMD0, amino acids 143-766; A tobacco etch virus cleavage site lies between coreTAPL and mVenus; no cleavage is reported for the mVenus constructs, so the His10 behind mVenus was probably still there; also called wt; wt TAPL; source: Sf21 insect cells (baculovirus), purified by Ni-NTA after solubilisation in GDN or DDM; reconstituted into …

Data set [1] deals with human coreTAPL (TAPL, ABCB9) (Homo sapiens, UniProt Q9NP78, D278A). In words: biochemical.
Data set [2] concerns the target human coreTAPL (TAPL, ABCB9) (Homo sapiens, UniProt Q9NP78, D292A). Kind of data set: biochemical.
Data set [3] concerns the target human coreTAPL (TAPL, ABCB9) (Homo sapiens, UniProt Q9NP78, R288A). Kind of data set: biochemical.
Data set [4] addresses human coreTAPL (TAPL, ABCB9) (Homo sapiens, UniProt Q9NP78). Kind of data set: biochemical.
In data set [5] the target is T1, human coreTAPL D292A, C-terminal mVenus-His10 fusion (human).
For data set [6], the target named is T2, human coreTAPL R288A, C-terminal mVenus-His10 fusion (human).
For data set [7], the target named is T3, human coreTAPL wildtype (transporter associated with antigen processing-like, ABCB9), C-terminal mVenus-His10 fusion (human).
Data set [8] concerns the target T2, human coreTAPL R288A, C-terminal mVenus-His10 fusion (human). This is another data set of the same source.
Data set [9] has as its target B2. Kind of data set: MST; 5 nM C4^Atto-655 with 5 μM GDN-purified TAPL variant in GDN-containing elution buffer, 22 °C, single concentration. Conditions: both partners purified.
For data set [10], the target named is B5. The description is as above. The settings on record: both partners purified.
The target of data set [11] is B3. Described as above. Conditions: both partners purified.
Data set [12] addresses B4. Described as above. Conditions: both partners purified.
Data set [13] concerns the molecule itself. Kind of data set: SEC; analytical, Superose 6 Increase 3.2/300, 20 mM Hepes, 140 mM NaCl, 100 mM imidazole, 15% glycerol, 0.1% GDN, pH 7.5, 4 °C; absorbance at 280 and 515 nm. For orientation: Size exclusion chromatography separates by hydrodynamic size, large species first.

Chain of human coreTAPL (TAPL, ABCB9) (Homo sapiens, UniProt Q9NP78, R288A) (Q9NP78 143-766 R288A): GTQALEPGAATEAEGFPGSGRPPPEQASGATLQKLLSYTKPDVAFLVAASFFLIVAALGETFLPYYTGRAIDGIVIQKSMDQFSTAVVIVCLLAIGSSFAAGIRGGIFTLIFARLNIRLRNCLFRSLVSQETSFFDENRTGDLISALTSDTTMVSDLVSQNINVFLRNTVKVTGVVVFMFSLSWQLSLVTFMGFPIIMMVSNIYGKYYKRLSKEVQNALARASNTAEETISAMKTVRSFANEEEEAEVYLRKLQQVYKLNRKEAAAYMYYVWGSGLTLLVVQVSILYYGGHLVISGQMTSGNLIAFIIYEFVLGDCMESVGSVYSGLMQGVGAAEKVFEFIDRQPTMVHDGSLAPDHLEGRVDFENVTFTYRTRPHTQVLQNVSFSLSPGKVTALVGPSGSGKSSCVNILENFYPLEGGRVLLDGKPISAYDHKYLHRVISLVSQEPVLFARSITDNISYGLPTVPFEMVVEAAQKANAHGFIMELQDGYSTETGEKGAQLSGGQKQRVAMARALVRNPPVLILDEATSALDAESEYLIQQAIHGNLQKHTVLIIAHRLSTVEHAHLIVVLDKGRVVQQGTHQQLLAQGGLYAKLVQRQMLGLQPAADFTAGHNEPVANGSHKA
Chain of human coreTAPL (TAPL, ABCB9) (Homo sapiens, UniProt Q9NP78, D278A) (Q9NP78 143-766 D278A): as the sequence (Q9NP78 143-766 R288A) above, with D136A, A146R counted along it
Chain of human coreTAPL (TAPL, ABCB9) (Homo sapiens, UniProt Q9NP78) (Q9NP78 143-766): as the sequence (Q9NP78 143-766 R288A) above, with A146R counted along it

`Nc1ncnc2c1ncn2[C@@H]1O[C@H](COP(=O)(O)OP(=O)(O)OP(=O)(O)O)[C@@H](O)[C@H]1O` [ATP]: the IC50 in data set [1] is 900 ± 200 nM; in data set [2] it was 1300 ± 800 nM; in data set [3] it was 5600 ± 1700 nM; in data set [4], 1900 ± 1300 nM.
With RRYQNSTC(Fluorescein(5-NHCOCH2))L [peptide NST^FL (RRYQNSTC^FLL)], the K (m,peptide) of peptide transport into proteoliposomes (0 to 30 μM NST^FL, 10 min, 37 °C) in data set [5] is 2.5 µM; in [6] it was 2.2 µM; in [7], 4.1 µM.
The molecule RRYQKSTEL [peptide R9L (…)] gave an IC50 of the decrease of ATP hydrolysis in proteoliposomes by R9L (0–300 μM, 0.3 mM ATP, 15 min, 37 °C) in data set [8] of 9500 nM.
B1: the binding result in data set [9], in [10], in data set [11] and in [12] was “binds” in each case.
Turning to B2, in [13], the binding result is reported as “binds”.
The same measure, in the same setting: with B3 the entry was “binds”; with B4, “binds”.
On the same count and under the same terms, with B5 the entry was “binds”.
